For 84 variants, reverse-splicing fitness results are on record in the RNAGym collection of RNA variant scans (doi:10.1093/molbev/msab373).

The chains are these.
B1: Azoarcus group I ribozyme (parent)
chain: GUGCCUUGCGCCGGGAAACCACGCAAGGGAUGGUGUCAAAUUCGGCGAAACCUAAGCGCCCGCCCGGGCGUAUGGCAACGCCGAGCCAAGCUUCGGCGCCUGCGCCGAUGAAGGUGUAGAGACUAGACGGCACCCACCUAAGGCAAACGCUAUGGUGAAGGCAUAGUCCAGGGAGUGGCGAAAGUCACACAAACCGG

This series covers variants of B1. As to the kind of experiment: reverse-splicing fitness (ratio to wild type); higher = more active; in vitro selection; Mg2+ level not given. In a few lines:
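An in vitro group I ribozyme library with randomized positions was T7-transcribed and gel-purified. In triplicate, 10 pmol RNA in EPPS pH 7.5 was reacted with 50 pmoles of a 30-nt RNA substrate for 1 h at 37 °C across several added MgCl2 levels (1–48 mM), then stopped with EDTA. Products were reverse transcribed from a substrate-complementary primer, PCR-amplified and sequenced (HiSeq 4000). Fitness is a variant's read proportion after selection over that before, normalised to wild type.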
On to C82U A111G A120C A145G C169A, for which the reverse-splicing fitness was found to be 0.00713.
As for C82U A111G A120C A145G C169G, the figure is 0.00801; as for C82U A111G A120C A145G C169U, 0.0129.
To C82U A111G A120G A145C C150U C169G U176C belongs 0.0111.
Take C82U A111G A120G A145C C150U C169G U176G: the reverse-splicing fitness is 0.0045.
For the variant C82U A111G A120G A145C C150U C169G U176A, the reverse-splicing fitness was 0.0203.
As for C82U A111G A120C A145U C150U C169G U176A, the figure is 0.0133; as for C82U A111G A120C A145U C150U C169G U176G, 0.00414.
As for C82U A111G A120C A145U C150U C169G U176C, the figure is 0.0121.
As for C82U A111G A120C C150G C169G U176A, the reverse-splicing fitness is 0.00718.
To C82U A111G A120C C150G C169G U176G belongs 0.00467; to C82U A111G A120C C150G C169G U176C, 0.00429.
With C82U A111G A120G A145G C150A C169A U176C, the reverse-splicing fitness amounted to 0.0196.
Regarding C82U A111G A120G A145G C150A C169A U176A, the reverse-splicing fitness amounted to 0.0174.
To C82U A111G A120G A145G C150A C169A U176G belongs 0.00545; to C82U A111G A120G A145G C150A C169U U176G, 0.00573.
As for C82U A111G A120G A145G C150A C169U U176A, the figure is 0.0215; as for C82U A111G A120G A145G C150A C169U U176C, 0.0156; as for C82U A111G A120G A145C C169G U176A, 0.0238.
As for C82U A111G A120G A145C C169G U176C, the figure is 0.0158; as for C82U A111G A120G A145C C169G U176G, 0.0039; as for C82U A111G A120C A145U C150A U176G, 0.0049.
As to C82U A111G A120C A145U C150A U176A, the reverse-splicing fitness came out at 0.0116.
For C82U A111G A120C A145U C150A U176C, the reverse-splicing fitness was 0.0125.
As to C82U A111G A120G A145G C169G U176G, the reverse-splicing fitness amounted to 0.00424.
As for C82U A111G A120G A145G C169G U176C, the figure is 0.0289; as for C82U A111G A120G A145G C169G U176A, 0.0211; as for C82U A111G A120G A145C C150U C169U U176A, 0.0196.
To C82U A111G A120G A145C C150U C169U U176C belongs 0.0091; to C82U A111G A120G A145C C150U C169U U176G, 0.00413.
With C82U A111G A120C A145G C169A U176C, the reverse-splicing fitness is 0.0205.
C82U A111G A120C A145G C169A U176G: the reverse-splicing fitness stood at 0.00336.
Take C82U A111G A120C A145G C169A U176A: the reverse-splicing fitness worked out at 0.0153.
Regarding C82U A111G A120G A145G C150U U176A, the reverse-splicing fitness was 0.00859.
For the variant C82U A111G A120G A145G C150U U176G, the reverse-splicing fitness came to 0.00622.
As to C82U A111G A120G A145G C150U U176C, the reverse-splicing fitness came out at 0.0166.
C82U A111G A120C C150U C169G: the reverse-splicing fitness was 0.00986.
As for C82U A111G A120C C150U C169A, the figure is 0.00965; as for C82U A111G A120C C150U C169U, 0.0124.
With C82U A111G A120C A145G C150U C169U U176A, the reverse-splicing fitness worked out at 0.0147.
As for C82U A111G A120C A145G C150U C169U U176C, the figure is 0.0127; as for C82U A111G A120C A145G C150U C169U U176G, 0.00448.
For the variant C82U A111G A120C C150G C169A U176G, the reverse-splicing fitness was 0.00578.
As for C82U A111G A120C C150G C169A U176A, the reverse-splicing fitness amounted to 0.00865.
Turning to C82U A111G A120C C150G C169A U176C, the reverse-splicing fitness was determined as 0.0113.
As for C82U A111G A120C A145U C150U, the figure is 0.0338.
As for C82U A111G A120C A145U C150G, the figure is 0.00964; as for C82U A111G A120C A145U C150A, 0.0105.
For the variant C82U A111G A120C A145U C150U U176G, the reverse-splicing fitness came out at 0.00565.
As for C82U A111G A120C A145U C150U U176C, the figure is 0.0223; as for C82U A111G A120C A145U C150U U176A, 0.0147.
As for C82U A111G A120G A145G C150G C169A U176G, the figure is 0.00756; as for C82U A111G A120G A145G C150G C169A U176C, 0.0117; as for C82U A111G A120G A145G C150G C169A U176A, 0.0123.
With C82U A111G A120G A145U C169G U176A, the reverse-splicing fitness came to 0.0112.
Turning to C82U A111G A120G A145U C169G U176C, the reverse-splicing fitness amounted to 0.0118.
As to C82U A111G A120C A145U C169G, the reverse-splicing fitness turned out to be 0.00646.
As to C82U A111G A120C A145U C169U, the reverse-splicing fitness was 0.0104.
Take C82U A111G A120C A145U C169A: the reverse-splicing fitness is 0.00556.
As for C82U A111G A120G A145G C169A U176C, the figure is 0.0277.
Turning to C82U A111G A120G A145G C169A U176G, the reverse-splicing fitness was 0.00377.
To C82U A111G A120G A145G C169A U176A belongs 0.0215.
As for C82U A111G A120C A145U C150G C169U U176A, the figure is 0.00625; as for C82U A111G A120C A145U C150G C169U U176G, 0.00471.
To C82U A111G A120C A145U C150G C169U U176C belongs 0.0124.
Turning to C82U A111G A120C A145U C169G U176C, the reverse-splicing fitness was determined as 0.00823.
C82U A111G A120C A145U C169G U176G: the reverse-splicing fitness stood at 0.00375.
In the case of C82U A111G A120C A145U C169G U176A, the reverse-splicing fitness worked out at 0.00935.
As to C82U A111G A120C A145U C150U C169A U176G, the reverse-splicing fitness was determined as 0.00488.
As to C82U A111G A120C A145U C150U C169A U176C, the reverse-splicing fitness was found to be 0.00827.
As for C82U A111G A120C A145U C150U C169A U176A, the figure is 0.0106.
Consider C82U A111G A120C A145U U176A, for which the reverse-splicing fitness turned out to be 0.017.
To C82U A111G A120C A145U U176C belongs 0.0251; to C82U A111G A120C A145U U176G, 0.00658.
To C82U A111G A120G A145C C150A C169A U176G belongs 0.00425; to C82U A111G A120G A145C C150A C169A U176C, 0.00481; to C82U A111G A120G A145C C150A C169A U176A, 0.0114.
With C82U A111G A120G A145C C150G C169U U176C, the reverse-splicing fitness is 0.0102.
As for C82U A111G A120G A145C C150G C169U U176A, the figure is 0.0136.
To C82U A111G A120G A145C C150G C169U U176G belongs 0.00462; to C82U A111G A120G A145C C150A, 0.00658; to C82U A111G A120G A145C C150G, 0.00632.
In the case of C82U A111G A120G A145C C150U, the reverse-splicing fitness stood at 0.00813.
In the case of C82U A111G A120G A145U C150U C169G, the reverse-splicing fitness is 0.0107.
